In publication PMC10786891, “Massively parallel profiling of RNA-targeting CRISPR-Cas13d”:
Substitutions are numbered along the chain they refer to.

T1: EsCas13d, nuclease-dead (Eubacterium siraeum, UniProt B0MS50, R295A;H300A;R849A;H854A)
T1 sequence: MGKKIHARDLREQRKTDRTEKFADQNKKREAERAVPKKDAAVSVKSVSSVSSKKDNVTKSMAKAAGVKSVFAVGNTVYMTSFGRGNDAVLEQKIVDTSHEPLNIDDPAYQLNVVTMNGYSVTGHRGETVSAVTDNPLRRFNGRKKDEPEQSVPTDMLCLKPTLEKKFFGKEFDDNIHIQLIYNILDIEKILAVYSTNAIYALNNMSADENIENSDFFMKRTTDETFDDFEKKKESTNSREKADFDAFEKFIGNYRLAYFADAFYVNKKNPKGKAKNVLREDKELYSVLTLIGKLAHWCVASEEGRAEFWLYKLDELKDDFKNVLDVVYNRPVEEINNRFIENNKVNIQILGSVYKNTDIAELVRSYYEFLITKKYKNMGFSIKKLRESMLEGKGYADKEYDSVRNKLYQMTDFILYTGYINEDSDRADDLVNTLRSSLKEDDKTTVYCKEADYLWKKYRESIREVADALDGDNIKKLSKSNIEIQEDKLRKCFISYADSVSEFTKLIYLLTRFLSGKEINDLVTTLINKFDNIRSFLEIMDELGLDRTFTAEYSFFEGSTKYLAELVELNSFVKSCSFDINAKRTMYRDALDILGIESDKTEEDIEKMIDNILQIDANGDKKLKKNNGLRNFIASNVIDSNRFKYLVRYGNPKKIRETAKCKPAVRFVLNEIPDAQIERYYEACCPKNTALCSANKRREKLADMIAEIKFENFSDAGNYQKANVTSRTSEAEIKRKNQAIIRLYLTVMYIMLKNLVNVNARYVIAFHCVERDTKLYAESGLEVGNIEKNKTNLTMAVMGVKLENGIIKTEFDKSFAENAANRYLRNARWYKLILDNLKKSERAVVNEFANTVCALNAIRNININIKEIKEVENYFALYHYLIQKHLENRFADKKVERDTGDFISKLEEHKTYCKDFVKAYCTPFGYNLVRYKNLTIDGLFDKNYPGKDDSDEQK

B1: target 1 MT 5'PFS UAG 3'PFS CCC (mixed)
RNA 1: CACCCGUGCAAAAAUGCAGGGGUCUAAAACUGAGCGGAUAACCUCUCUAUGG
RNA 2: GGGAAUGGAUCCACAUCUACGAAUUCUAGCCAUAGAGAGGUUAUCCGCUCACCCAGAUCGGAAGAGCACACGU
B2: target 1 MT 5'PFS AAA 3'PFS UUG (mixed)
RNA 1: B1 RNA 1
RNA 2: B1 RNA 2 with U27A, G29A, C52U, C53U, C54G
B3: target 1 insC 3' of 19,insG 3' of 9 (mixed)
RNA 1: B1 RNA 1
RNA 2: GGGAAUGGAUCCACAUCUACGAAUUCGUACCAUCAGAGAGGUUAGUCCGCUCACCGAGAUCGGAAGAGCACACGU
B4: target 1 MT 5'PFS GUG 3'PFS AUC (mixed)
RNA 1: B1 RNA 1
RNA 2: B1 RNA 2 with U27G, A28U, C52A, C53U
B5: target 1 MT 5'PFS GAC 3'PFS AAA (mixed)
RNA 1: B1 RNA 1
RNA 2: B1 RNA 2 with U27G, G29C, C52A, C53A, C54A
B6: target 1 MT 5'PFS UAU 3'PFS UAA (mixed)
RNA 1: B1 RNA 1
RNA 2: B1 RNA 2 with G29U, C52U, C53A, C54A
B7: target 1 MT 5'PFS GAC 3'PFS UCU (mixed)
RNA 1: B1 RNA 1
RNA 2: B1 RNA 2 with U27G, G29C, C52U, C54U
B8: target 1 MT 5'PFS AAC 3'PFS ACA (mixed)
RNA 1: B1 RNA 1
RNA 2: B1 RNA 2 with U27A, G29C, C52A, C54A
B9: target 1 MT 5'PFS GUU 3'PFS CAA (mixed)
RNA 1: B1 RNA 1
RNA 2: B1 RNA 2 with U27G, A28U, G29U, C53A, C54A
B10: target 1 del8,del22 (mixed)
RNA 1: B1 RNA 1
RNA 2: GGGAAUGGAUCCACAUCUACGAAUUCGUACAUAGAGAGGUUACCGCUCACCGAGAUCGGAAGAGCACACGU
B11: target 1 MT 5'PFS GGG 3'PFS CGC (mixed)
RNA 1: B1 RNA 1
RNA 2: B1 RNA 2 with U27G, A28G, C53G
B12: target 1 MT 5'PFS CCA 3'PFS CAC (mixed)
RNA 1: B1 RNA 1
RNA 2: B1 RNA 2 with U27C, A28C, G29A, C53A
B13: target 1 MT 5'PFS CCA 3'PFS CAU (mixed)
RNA 1: B1 RNA 1
RNA 2: B1 RNA 2 with U27C, A28C, G29A, C53A, C54U
B14: target 1 MT 5'PFS CAA 3'PFS AUA (mixed)
RNA 1: B1 RNA 1
RNA 2: B1 RNA 2 with U27C, G29A, C52A, C53U, C54A
B15: target 1 MT 5'PFS CUC 3'PFS ACG (mixed)
RNA 1: B1 RNA 1
RNA 2: B1 RNA 2 with U27C, A28U, G29C, C52A, C54G
B16: target 1 MT 5'PFS GAC 3'PFS UCA (mixed)
RNA 1: B1 RNA 1
RNA 2: B1 RNA 2 with U27G, G29C, C52U, C54A
B17: target 1 MT 5'PFS GUG 3'PFS AUG (mixed)
RNA 1: B1 RNA 1
RNA 2: B1 RNA 2 with U27G, A28U, C52A, C53U, C54G
B18: target 1 MT 5'PFS AAC 3'PFS ACU (mixed)
RNA 1: B1 RNA 1
RNA 2: B1 RNA 2 with U27A, G29C, C52A, C54U
B19: target 1 MT 5'PFS GUG 3'PFS AUU (mixed)
RNA 1: B1 RNA 1
RNA 2: B1 RNA 2 with U27G, A28U, C52A, C53U, C54U
B20: target 1 MT 5'PFS AAC 3'PFS ACC (mixed)
RNA 1: B1 RNA 1
RNA 2: B1 RNA 2 with U27A, G29C, C52A
B21: target 1 MT 5'PFS UAG 3'PFS CCG (mixed)
RNA 1: B1 RNA 1
RNA 2: B1 RNA 2 with C54G
B22: target 1 MT 5'PFS GGG 3'PFS CGG (mixed)
RNA 1: B1 RNA 1
RNA 2: B1 RNA 2 with U27G, A28G, C53G, C54G
B23: target 1 MT 5'PFS GUG 3'PFS AUA (mixed)
RNA 1: B1 RNA 1
RNA 2: B1 RNA 2 with U27G, A28U, C52A, C53U, C54A
B24: target 1 insA 3' of 22,insU 3' of 4 (mixed)
RNA 1: B1 RNA 1
RNA 2: B3 RNA 2 with C31A, A32C, U33A, C34U, G45U, U46C, C48G, G49C, C50U
B25: target 1 insA 3' of 4,insU 3' of 4 (mixed)
RNA 1: B1 RNA 1
RNA 2: GGGAAUGGAUCCACAUCUACGAAUUCGUACCAUAGAGAGGUUAUCCGCAUUCACCGAGAUCGGAAGAGCACACGU
B26: target 1 MT 5'PFS UGU 3'PFS CUA (mixed)
RNA 1: B1 RNA 1
RNA 2: B1 RNA 2 with A28G, G29U, C53U, C54A
B27: target 1 MT 5'PFS UAA 3'PFS ACU (mixed)
RNA 1: B1 RNA 1
RNA 2: B1 RNA 2 with G29A, C52A, C54U
B28: target 1 MT 5'PFS CCA 3'PFS CAG (mixed)
RNA 1: B1 RNA 1
RNA 2: B1 RNA 2 with U27C, A28C, G29A, C53A, C54G
B29: target 1 MT 5'PFS GUU 3'PFS CAC (mixed)
RNA 1: B1 RNA 1
RNA 2: B1 RNA 2 with U27G, A28U, G29U, C53A
B30: target 1 MT 5'PFS UAA 3'PFS ACG (mixed)
RNA 1: B1 RNA 1
RNA 2: B1 RNA 2 with G29A, C52A, C54G
B31: target 1 MT 5'PFS GCA 3'PFS UCC (mixed)
RNA 1: B1 RNA 1
RNA 2: B1 RNA 2 with U27G, A28C, G29A, C52U
B32: target 1 MT 5'PFS UAA 3'PFS ACA (mixed)
RNA 1: B1 RNA 1
RNA 2: B1 RNA 2 with G29A, C52A, C54A
B33: target 1 MT 5'PFS GAC 3'PFS UCG (mixed)
RNA 1: B1 RNA 1
RNA 2: B1 RNA 2 with U27G, G29C, C52U, C54G
B34: target 1 MT 5'PFS UGU 3'PFS CUU (mixed)
RNA 1: B1 RNA 1
RNA 2: B1 RNA 2 with A28G, G29U, C53U, C54U
B35: target 1 MT 5'PFS GAC 3'PFS UCC (mixed)
RNA 1: B1 RNA 1
RNA 2: B1 RNA 2 with U27G, G29C, C52U
B36: target 1 MT 5'PFS ACC 3'PFS CAG (mixed)
RNA 1: B1 RNA 1
RNA 2: B1 RNA 2 with U27A, A28C, G29C, C53A, C54G
B37: target 1 MT 5'PFS AAA 3'PFS UUA (mixed)
RNA 1: B1 RNA 1
RNA 2: B1 RNA 2 with U27A, G29A, C52U, C53U, C54A
B38: target 1 MT 5'PFS CAA 3'PFS AUC (mixed)
RNA 1: B1 RNA 1
RNA 2: B1 RNA 2 with U27C, G29A, C52A, C53U

Target: T1, EsCas13d, nuclease-dead
Experiment: crRNA (strand 1, pre-loaded); Mg2+; 40 mM Tris-HCl pH 7.5, 150 mM NaCl, 6 mM MgCl2, 1 mM DTT, 0.1% Tween-20, 0.2 mg/ml BSA; 25 C; 10 min per concentration, then washed
Conditions: tags: His6-TwinStrep-SUMO cleaved; N-terminal SNAP kept (SNAP-Surface 488); label: 3' end held by stalled T7 RNA polymerase

Binder	Kd
B1	~56 nM
B2	11.7 ± 1.55 nM
B3	44 ± 5 nM
B4	19.9 ± 2.4 nM
B5	~51 nM
B6	34 ± 11 nM
B7	12.8 ± 4.8 nM
B8	80 ± 34.5 nM
B9	56.5 ± 22.5 nM
B10	32.9 ± 1.7 nM
B11	64 ± 30 nM
B12	~9.5 nM
B13	6.55 ± 2.8 nM
B14	17.5 ± 7.5 nM
B15	72 ± 33 nM
B16	16.6 ± 3.5 nM
B17	16.2 ± 1 nM
B18	21 ± 7 nM
B19	15.8 ± 1.4 nM

Binder	Kd
B20	~43 nM
B21	22 ± 5.15 nM
B22	37.5 ± 8 nM
B23	18.2 ± 1.25 nM
B24	11.3 ± 0.7 nM
B25	12.4 ± 1.6 nM
B26	49 ± 19 nM
B27	29 ± 7 nM
B28	4.25 ± 1.3 nM
B29	22.5 ± 9 nM
B30	25 ± 4.5 nM
B31	13.7 ± 5.95 nM
B32	43.5 ± 17.5 nM
B33	13.2 ± 1.9 nM
B34	28.9 ± 7.65 nM
B35	23 ± 9.3 nM
B36	~36 nM
B37	10.1 ± 1.45 nM
B38	~32.5 nM
